According to paper PMC11700839:

Target: ETS1 transcription factor (endogenous, FP-RMS cells) (human (endogenous in Rh30 and Rh41)) (UniProt P14921)
Assay: co-IP; endogenous proteins from Rh30 and Rh41 cells, IP with ETS1 antibody (rabbit IgG as negative control), immunoblot; also with Ethidium Bromide or Benzonase in the IP; also cells pre-treated 16 hours with 1 µM YK-4-279 or DMSO and the same included in the IP reaction, recovery by densitometry normalized to ETS1

Sequence of UniProt P14921 (P14921 whole entry): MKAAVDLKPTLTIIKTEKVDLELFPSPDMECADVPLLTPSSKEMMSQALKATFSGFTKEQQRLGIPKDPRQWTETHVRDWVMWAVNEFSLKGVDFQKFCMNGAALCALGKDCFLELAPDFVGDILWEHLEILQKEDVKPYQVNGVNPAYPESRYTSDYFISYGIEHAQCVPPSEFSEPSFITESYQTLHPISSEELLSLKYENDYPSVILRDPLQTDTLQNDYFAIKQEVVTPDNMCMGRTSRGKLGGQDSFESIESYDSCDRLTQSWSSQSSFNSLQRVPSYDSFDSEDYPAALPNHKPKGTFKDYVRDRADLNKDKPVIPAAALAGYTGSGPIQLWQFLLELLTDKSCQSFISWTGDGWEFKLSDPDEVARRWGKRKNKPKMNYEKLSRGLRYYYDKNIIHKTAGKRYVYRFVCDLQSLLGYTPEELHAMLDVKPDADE

co-immunoprecipitated PAX3-FOXO1 with 1 µM YK-4-279, percent of DMSO control (Rh30 cells) (% of DMSO control): 50
co-immunoprecipitated PAX3-FOXO1 with 1 µM YK-4-279, percent of DMSO control (Rh41 cells) (% of DMSO control): 65
Substance: PAX3-FOXO1 oncofusion (endogenous, FP-RMS cells) (natural protein)
